Experimental data published in article PMC5224880, “Discovery and Molecular Basis of a Diverse Set of Polycomb Repressive Complex 2 Inhibitors Recognition by EED” (PLoS ONE, 2017).

Target: T1, EED, comprising residues 76–441 (TEV-cleaved, used for crystallization) (human, UniProt O75530 76-441)
T1 construct: EED (embryonic ectoderm development), human, residues 76-441, cloned into pGEX-KG; The EED in PDB 5H13 (no EZH2 peptide) was cleaved with thrombin instead of TEV; also called embryonic ectoderm development; TEV-cleaved EED protein; source: E. coli BL21-CodonPlus(DE3)-RIL, purified (Glutathione Sepharose 4B, TEV cleavage, Ni2+-NTA flow-through, Superdex 75); not shown: GST, N-terminal, cleaved
T1 sequence (O75530 76-441): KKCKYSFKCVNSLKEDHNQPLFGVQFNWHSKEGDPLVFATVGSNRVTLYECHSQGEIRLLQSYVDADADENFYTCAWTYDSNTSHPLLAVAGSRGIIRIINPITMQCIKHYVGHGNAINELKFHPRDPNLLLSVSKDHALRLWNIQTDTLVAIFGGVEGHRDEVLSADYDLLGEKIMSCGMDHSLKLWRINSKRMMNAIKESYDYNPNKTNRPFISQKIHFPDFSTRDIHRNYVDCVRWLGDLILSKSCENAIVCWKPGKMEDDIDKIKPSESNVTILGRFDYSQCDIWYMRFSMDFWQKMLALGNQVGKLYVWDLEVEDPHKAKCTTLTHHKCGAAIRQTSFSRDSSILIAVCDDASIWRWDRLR
Assay: crystal structure; TEV-cleaved EED (76-441) mixed with EZH2 peptide at molar ratio 1:2.5; EED-EBD crystals soaked with EED709, EED666 or EED210 (0.1 M Tris pH 8.0, 16% PEG 8000, 20°C) or co-crystallised with EED162 (0.1 M Bis-Tris pH 6.0, 0.2 M MgCl2, 20% PEG 3350)
Settings: both partners purified

B1: EZH2 peptide (residues 40–68, EBD) (peptide)
peptide: KSMFSSNRQKILERTEILNQEWKQRRIQPV
notes: EZH2 (Enhancer of zeste homolog 2), human; Printed as NH2-...-CO2H (free ends); also called EBD peptide; EZH2 peptide (40–68); source: synthetic peptide (GL Biochem)
B1: binds.
